{
  "source": "the RNAGym collection of RNA variant scans (doi:10.1073/pnas.2313332121)",
  "parents": {"B1": {"name": "TPR t1 (parent)", "chain": "GACCAAUCUGCCCUCAGAGCUCGAGAACAUCUUCGGAUGCAGAGGAGGCAGGCUUCGGUGGCGCGAUAGCGCCAACGUCCUCAACCUCCAAUGCAUCCCACCACAUGAUGAUGCCUGAAGAGCCUUGGUUUUUUG"}},
  "data": [
    {"variants_of": "B1", "assay": "polymerase ribozyme fitness, log enrichment relative to wild type (log ratio); higher = more active; in vitro selection for triplet polymerase activity", "method_in_brief": "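Mutant libraries were PCR-built and transcribed for each subunit of a heterodimeric triplet polymerase ribozyme and selected for one round in triplicate at −7 °C, frozen, before gel excision of extended constructs and streptavidin-bead capture. Input and output libraries were Illumina-sequenced, keeping genotypes with ≥10 input reads and ≥1 read per output. Fitness is a logarithmic ratio of genotype to wild-type enrichment, in base 2, using inverse-variance-weighted replicate averages.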", "values": [
      {"variant": "A43U C49A G51C C56G G63C U106A", "polymerase ribozyme fitness (log ratio)": -7.03},
      {"variant": "A43U A83U", "polymerase ribozyme fitness (log ratio)": -1.8},
      {"variant": "A43U G45A G58C G69U", "polymerase ribozyme fitness (log ratio)": 0.218},
      {"variant": "A43U G63A A95G G120U G128U", "polymerase ribozyme fitness (log ratio)": -4.88},
      {"variant": "A43G G60U U78C", "polymerase ribozyme fitness (log ratio)": -2.18},
      {"variant": "A43U C73U U92G G113A", "polymerase ribozyme fitness (log ratio)": -2.84},
      {"variant": "A43G G63C C82G", "polymerase ribozyme fitness (log ratio)": -4.47},
      {"variant": "A43U C72A", "polymerase ribozyme fitness (log ratio)": -1.26},
      {"variant": "A43C G71U U112C G135A", "polymerase ribozyme fitness (log ratio)": -1.05},
      {"variant": "A43U G48U A50U C62U C88G C101G U112A", "polymerase ribozyme fitness (log ratio)": -5.19},
      {"variant": "A43U C76A G135U", "polymerase ribozyme fitness (log ratio)": -3.89},
      {"variant": "A43U G57U C86A", "polymerase ribozyme fitness (log ratio)": -2.97},
      {"variant": "A43C G77A", "polymerase ribozyme fitness (log ratio)": -2.79},
      {"variant": "A43C G77C", "polymerase ribozyme fitness (log ratio)": -2.27},
      {"variant": "A43U C88A", "polymerase ribozyme fitness (log ratio)": -1.18},
      {"variant": "A43G A74U", "polymerase ribozyme fitness (log ratio)": -2.25},
      {"variant": "A43G A74C", "polymerase ribozyme fitness (log ratio)": -2.19},
      {"variant": "A43G G117U", "polymerase ribozyme fitness (log ratio)": -4.21},
      {"variant": "A43U G47U G61A C72G C97U", "polymerase ribozyme fitness (log ratio)": -2.63},
      {"variant": "A43U A66C G71U", "polymerase ribozyme fitness (log ratio)": -5.02},
      {"variant": "A43C U87A G110A", "polymerase ribozyme fitness (log ratio)": -5.45},
      {"variant": "A43G C70U", "polymerase ribozyme fitness (log ratio)": -2.76},
      {"variant": "A43C G120U", "polymerase ribozyme fitness (log ratio)": -2.7},
      {"variant": "A43U G45A G58C", "polymerase ribozyme fitness (log ratio)": -1.24},
      {"variant": "A43C U59G U78C A111U", "polymerase ribozyme fitness (log ratio)": -5.7},
      {"variant": "A43U C73G C85U C98G C115U", "polymerase ribozyme fitness (log ratio)": -7.11},
      {"variant": "A43G A118G", "polymerase ribozyme fitness (log ratio)": -1.54},
      {"variant": "A43G G58A C85U U112C", "polymerase ribozyme fitness (log ratio)": -1.68},
      {"variant": "A43U G45A C56A", "polymerase ribozyme fitness (log ratio)": -1.86},
      {"variant": "A43U C115A C124U", "polymerase ribozyme fitness (log ratio)": -0.864},
      {"variant": "A43G A108G", "polymerase ribozyme fitness (log ratio)": -4.26},
      {"variant": "A43G U112A", "polymerase ribozyme fitness (log ratio)": -0.27},
      {"variant": "A43U A46U C56A", "polymerase ribozyme fitness (log ratio)": -2.93},
      {"variant": "A43U C62G C82A C101A C123G", "polymerase ribozyme fitness (log ratio)": -4.38},
      {"variant": "A43U A66G", "polymerase ribozyme fitness (log ratio)": -3.64},
      {"variant": "A43G G107U G110C A118U C124A", "polymerase ribozyme fitness (log ratio)": -7.12},
      {"variant": "A43U G48A A100C A111G", "polymerase ribozyme fitness (log ratio)": -5.16},
      {"variant": "A43U C49U A75U G113C C123U", "polymerase ribozyme fitness (log ratio)": -3.62},
      {"variant": "A43U A46U", "polymerase ribozyme fitness (log ratio)": -2.27},
      {"variant": "A43U C72A C114U G128C", "polymerase ribozyme fitness (log ratio)": -5.92},
      {"variant": "A43G G52U", "polymerase ribozyme fitness (log ratio)": -2.44},
      {"variant": "A43C G61A", "polymerase ribozyme fitness (log ratio)": -2.52},
      {"variant": "A43U G45U", "polymerase ribozyme fitness (log ratio)": -1.71},
      {"variant": "A43C G58A U78A C114A", "polymerase ribozyme fitness (log ratio)": -5.29},
      {"variant": "A43U G44C G45A A83C G110A", "polymerase ribozyme fitness (log ratio)": -6.81},
      {"variant": "A43C G61U C82U C104G C123A", "polymerase ribozyme fitness (log ratio)": -7.32},
      {"variant": "A43G C89U", "polymerase ribozyme fitness (log ratio)": -1.2},
      {"variant": "A43G A50C G57U", "polymerase ribozyme fitness (log ratio)": -2.8},
      {"variant": "A43U G47C G113U", "polymerase ribozyme fitness (log ratio)": -3.6},
      {"variant": "A43U A46U G47U G117U", "polymerase ribozyme fitness (log ratio)": -7.8},
      {"variant": "A43U C88U A95C", "polymerase ribozyme fitness (log ratio)": -2.51},
      {"variant": "A43G C56A G57U U59C A84C C86U", "polymerase ribozyme fitness (log ratio)": -3.81},
      {"variant": "A43C G69A C94G", "polymerase ribozyme fitness (log ratio)": -7.62},
      {"variant": "A43G G63C U96C", "polymerase ribozyme fitness (log ratio)": -2.76},
      {"variant": "A43U C56U C79A", "polymerase ribozyme fitness (log ratio)": -3.22},
      {"variant": "A43U G48A", "polymerase ribozyme fitness (log ratio)": -1.56},
      {"variant": "A43G C124G", "polymerase ribozyme fitness (log ratio)": 0.268},
      {"variant": "A43U G44C", "polymerase ribozyme fitness (log ratio)": -1.05},
      {"variant": "A43G G128A", "polymerase ribozyme fitness (log ratio)": -3.36},
      {"variant": "A43G G128U", "polymerase ribozyme fitness (log ratio)": -4.43},
      {"variant": "A43G U92A", "polymerase ribozyme fitness (log ratio)": -2.96},
      {"variant": "A43G A50G C101G C124A U129A", "polymerase ribozyme fitness (log ratio)": -3.82},
      {"variant": "A43G G113A", "polymerase ribozyme fitness (log ratio)": -2.18},
      {"variant": "A43G A46U U55G", "polymerase ribozyme fitness (log ratio)": -2.46},
      {"variant": "A43G C53A U78C C88U", "polymerase ribozyme fitness (log ratio)": -1.22},
      {"variant": "A43G G45U C72G", "polymerase ribozyme fitness (log ratio)": -2.45},
      {"variant": "A43G C49G C98U G120C", "polymerase ribozyme fitness (log ratio)": -3.88},
      {"variant": "A43U C70G G117A", "polymerase ribozyme fitness (log ratio)": -6.87},
      {"variant": "A43C G61U G117A", "polymerase ribozyme fitness (log ratio)": -3.52},
      {"variant": "A43G G69C", "polymerase ribozyme fitness (log ratio)": -2.38},
      {"variant": "A43U C62G U112G G113C G122U", "polymerase ribozyme fitness (log ratio)": -6.69},
      {"variant": "A43U G48C G57A C89U U106C", "polymerase ribozyme fitness (log ratio)": -2.94},
      {"variant": "A43U A46C C115U U116C", "polymerase ribozyme fitness (log ratio)": -2.39},
      {"variant": "A43C G60U U78C C104A G120C", "polymerase ribozyme fitness (log ratio)": -5.55},
      {"variant": "A43G G71A C82A G120U A121C", "polymerase ribozyme fitness (log ratio)": -3.35},
      {"variant": "A43G C72G", "polymerase ribozyme fitness (log ratio)": -1.52},
      {"variant": "A43G C72U", "polymerase ribozyme fitness (log ratio)": -0.99},
      {"variant": "A43G C53G", "polymerase ribozyme fitness (log ratio)": -2.54},
      {"variant": "A43C G48C C123A", "polymerase ribozyme fitness (log ratio)": -1.93},
      {"variant": "A43G G60A", "polymerase ribozyme fitness (log ratio)": -2.12},
      {"variant": "A43U G58U C62U A74C", "polymerase ribozyme fitness (log ratio)": -2.24},
      {"variant": "A43G C70G G110U", "polymerase ribozyme fitness (log ratio)": -5.99},
      {"variant": "A43C U92G C101A U132A", "polymerase ribozyme fitness (log ratio)": -4.9},
      {"variant": "A43U C76A C85G G120A U130C", "polymerase ribozyme fitness (log ratio)": -1.34}
    ]}
  ]
}
